Common to all, as to test: proteo-liposome transport assay, LC-MS/MS
Common to all, as to assay type: biochemical, Arabidopsis thaliana
What all share (details): apparent Km, proteo-liposomes pre-loaded with 10 mM GMP, 0.5–400 μM substrate, 25 °C, pH 7.5, mean (s.e.m.) n=4

Substrate in series [1]: C[C@@H]1O[C@H](OP(=O)(O)OP(=O)(O)OC[C@H]2O[C@@H](n3cnc4c(=O)[nH]c(N)nc43)[C@H](O)[C@@H]2O)[C@@H](O)[C@H](O)[C@@H]1O
The source says: (§1) proteo-liposome transport assay, LC-MS/MS on GONST1

Substrate in series [2]: Nc1nc2c(ncn2[C@@H]2O[C@H](COP(=O)(O)OP(=O)(O)O[C@H]3O[C@H](CO)[C@@H](O)[C@H](O)[C@@H]3O)[C@@H](O)[C@H]2O)c(=O)[nH]1
Description: as §1

Substrate in series [3]: C[C@@H]1O[C@H](OP(=O)(O)OP(=O)(O)OC[C@H]2O[C@@H](n3cnc4c(=O)[nH]c(N)nc43)[C@H](O)[C@@H]2O)[C@@H](O)[C@H](O)[C@@H]1O
An excerpt: proteo-liposome transport assay, LC-MS/MS on GFT1
The source holds these as a separate data set.

B1: GONST1 (Arabidopsis thaliana) (protein)
chain: MKLYEHDGVDLEDGKTVKSGGDKPIPRKIHNRALLSGLAYCISSCSMILVNKFVLSSYNFNAGIFLMLYQNFVSVIIVVGLSLMGLITTEPLTLRLMKVWFPVNVIFVGMLITSMFSLKYINVAMVTVLKNVTNVITAVGEMYLFNKQHDNRVWAALFLMIISAVSGGITDLSFNAVGYAWQIANCFLTASYSLTLRKTMDTAKQVTQSGNLNEFSMVLLNNTLSLPLGLLLSYFFNEMDYLYQTPLLRLPSFWMVMTLSGLLGLAISFTSMWFLHQTGATTYSLVGSLNKIPLSIAGIVLFNVPTSLQNSASILFGLVAGVVFARAKMREKS
notes: yeast microsomal protein reconstituted into liposomes
Take B1: in series [1], the Km is given as 76 (5) μM, the Vmax turned out to be 0.84 µM/min and the kcat was determined as 0.7 s⁻¹. Also, in series [2], the Km is reported as 17 (3) μM, the Vmax was 1.44 µM/min and the catalytic constant (kcat) is 1.2 s⁻¹.

B2: GFT1 (Arabidopsis thaliana) (protein)
chain: MSSSRFDSNKQLTTSSLVIGYALCSSLLAVINKLAITYFNYPGLLTALQYLTCTVAVYLLGKSGLINHDPFTWDTAKKFLPAAIVFYLAIFTNTNLLRHANVDTFIVFRSLTPLLVAIADTVFRSQPLPSRLTFLSLVVILAGAVGYVATDSSFTLTAYSWALAYLVTITTEMVYIKHMVSNIKLNIWGLVLYNNLLSLMIAPVFWFLTGEFTEVFAALSENRGNLFEPYAFSSVAASCVFGFLISYFGFAARNAISATAFTVTGVVNKFLTVVINVLIWDKHATPVGLVCLLFTICGGVGYQQSVKLDKPIEKVSEKDSEKGEEDEELTQLVPGKLASVV
notes: as for B1
On to B2, for which, in series [3], the Km is listed as 7 (1) μM, the Vmax was determined as 3.24 µM/min and the kcat turned out to be 4 s⁻¹.

A word on the Vmax: it is the top rate of the reaction or transport when substrate is in excess. A word on the kcat: it is the maximal rate divided by the concentration of active sites.

These data come from paper PMC4935801, “The Arabidopsis Golgi-localized GDP-L-fucose transporter is required for plant development” (Nature Communications, 2016).
